Data on three molecules can be found in PMC9272907, “Penpulimab, an Fc-Engineered IgG1 Anti-PD-1 Antibody, With Improved Efficacy and Low Incidence of Immune-Related Adverse Events” (Frontiers in Immunology, 2022).

The Kd is a measure of binding affinity in units of concentration. Read a high Kd as lower affinity. In general, koff refers to the rate constant with which the complex falls apart. A low value points to a long-lived complex. For orientation: kon means the rate constant with which the complex forms.

Experiment [1] addresses FcγRIIa_R131 (human). In words: BLI; ForteBio Octet QKe; FcγRIIa_R131 or FcγRIIa_H131 immobilised on NTA sensor; antibody 200 nM to 12.5 nM in solution; 60 s binding and 60 s dissociation. A general note: Biolayer interferometry detects binding as a change in optical thickness at a sensor tip.
Experiment [2] deals with FcγRIIa_H131 (human) (UniProt P12318). Described as above.
Chain of FcγRIIa_H131 (human) (P12318 34-317): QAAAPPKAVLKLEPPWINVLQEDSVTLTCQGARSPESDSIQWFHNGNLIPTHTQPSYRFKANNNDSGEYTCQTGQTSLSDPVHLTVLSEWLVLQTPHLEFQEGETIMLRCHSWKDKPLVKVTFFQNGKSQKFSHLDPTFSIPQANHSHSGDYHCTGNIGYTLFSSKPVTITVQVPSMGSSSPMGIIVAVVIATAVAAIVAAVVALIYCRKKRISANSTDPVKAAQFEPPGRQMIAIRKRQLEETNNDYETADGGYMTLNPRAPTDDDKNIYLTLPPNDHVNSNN
Experiment [3] has as its target FcγRIIIa_V158 (human). In words: BLI; ForteBio Octet QKe; FcγRIIIa_F158 or FcγRIIIa_V158 (5 μg/mL) immobilised on HIS1K sensor; antibody 500 nM to 31.25 nM in solution; 60 s binding and 60 s dissociation.
Experiment [4] deals with FcγRIa (human) (UniProt P12314). As to the kind of experiment: BLI; ForteBio Octet QKe; FcγRIa immobilised on HIS1K sensor; antibody 50 nM to 3.12 nM in solution; 120 s binding and 120 s dissociation.
Chain of FcγRIa (human) (P12314 16-374): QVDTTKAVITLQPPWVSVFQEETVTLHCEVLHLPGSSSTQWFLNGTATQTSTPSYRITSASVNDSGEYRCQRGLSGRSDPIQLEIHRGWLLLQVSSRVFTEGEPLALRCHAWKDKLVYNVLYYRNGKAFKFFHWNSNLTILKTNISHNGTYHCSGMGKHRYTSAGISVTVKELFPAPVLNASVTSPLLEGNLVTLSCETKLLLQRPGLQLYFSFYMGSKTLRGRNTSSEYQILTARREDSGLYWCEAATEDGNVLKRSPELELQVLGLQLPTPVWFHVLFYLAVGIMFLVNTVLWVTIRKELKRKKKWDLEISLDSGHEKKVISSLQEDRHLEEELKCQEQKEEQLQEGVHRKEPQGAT
Experiment [5] addresses T1, human PD-1 extracellular domain fused to human IgG Fc domain (PD-1-hFc) (Homo sapiens, UniProt Q15116).
T1 construct: human programmed cell death protein 1 (PD-1), extracellular domain
As to the kind of experiment: SPR; Biacore T200; PD-1-hFc immobilised on CM5 chip; antibody 50 nM to 1.56 nM flowed; 180 s binding, 420 s dissociation. The conditions noted are these: both partners purified.

The target of experiment [6] is FcγRIIIa_F158 (human) (UniProt P08637). In words: BLI; ForteBio Octet QKe; FcγRIIIa_F158 or FcγRIIIa_V158 (5 μg/mL) immobilised on HIS1K sensor; antibody 500 nM to 31.25 nM in solution; 60 s binding and 60 s dissociation.
Chain of FcγRIIIa_F158 (human) (P08637 17-254): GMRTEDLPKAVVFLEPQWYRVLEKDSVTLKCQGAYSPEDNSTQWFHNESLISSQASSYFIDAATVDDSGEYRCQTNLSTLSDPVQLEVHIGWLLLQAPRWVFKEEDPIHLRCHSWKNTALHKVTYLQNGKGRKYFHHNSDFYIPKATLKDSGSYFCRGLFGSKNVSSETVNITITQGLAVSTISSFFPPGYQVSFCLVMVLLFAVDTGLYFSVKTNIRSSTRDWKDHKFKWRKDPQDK

T1 sequence (Q15116 25-170): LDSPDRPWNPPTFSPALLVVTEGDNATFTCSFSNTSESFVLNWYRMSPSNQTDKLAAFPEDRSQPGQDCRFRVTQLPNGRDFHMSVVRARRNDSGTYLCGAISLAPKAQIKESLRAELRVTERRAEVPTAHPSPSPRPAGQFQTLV

B1: AK105 (hG4), an IgG4 backbone version of penpulimab (antibody, V domains shown)
VH: EVQLVESGGGLVQPGGSLRLSCAASGFAFSSYDMSWVRQAPGKGLDWVATISGGGRYTYYPDSVKGRFTISRDNSKNNLYLQMNSLRAEDTALYYCANRYGEAWFAYWGQGTLVTVSS
VL: DIQMTQSPSSMSASVGDRVTFTCRASQDINTYLSWFQQKPGKSPKTLIYRANRLVSGVPSRFSGSGSGQDYTLTISSLQPEDMATYYCLQYDEFPLTFGAGTKLELK
B1: the Kd in experiment [1] worked out at 31.3 nM; in experiment [2] it was 50.7 nM; in experiment [3] it was 23500 nM; in experiment [4], 8.25 nM. Moreover, the off-rate (koff) stood at 0.011 s⁻¹ in experiment [1], 0.013 s⁻¹ in experiment [2], 0.0837 s⁻¹ in experiment [3] and 0.00478 s⁻¹ in experiment [4]. The on-rate (kon) in experiment [1] was found to be 350000 M⁻¹ s⁻¹; in experiment [2] it was 257000 M⁻¹ s⁻¹; in experiment [3] it was 3560 M⁻¹ s⁻¹; in experiment [4] it was 579000 M⁻¹ s⁻¹.

B2: Penpulimab (antibody, V domains shown)
VH: EVQLVESGGGLVQPGGSLRLSCAASGFAFSSYDMSWVRQAPGKGLDWVATISGGGRYTYYPDSVKGRFTISRDNSKNNLYLQMNSLRAEDTALYYCANRYGEAWFAYWGQGTLVTVSS
VL: DIQMTQSPSSMSASVGDRVTFTCRASQDINTYLSWFQQKPGKSPKTLIYRANRLVSGVPSRFSGSGSGQDYTLTISSLQPEDMATYYCLQYDEFPLTFGAGTKLELK
notes: heavy chain variable domain of penpulimab; light chain of penpulimab; Human IgG1 anti-PD-1 antibody with Fc mutations; probably a Fab; also called AK105
For the molecule B2, in experiment [1], the Kd was 232 nM, the koff was 0.0938 s⁻¹ and the kon was determined as 404000 M⁻¹ s⁻¹. In experiment [5], the Kd stood at 0.588 nM, the koff is 9.51e-05 s⁻¹ and the kon came to 162000 M⁻¹ s⁻¹.

B3: AK105 (hG1WT), a version of penpulimab with wildtype IgG1 backbone (antibody, V domains shown)
VH: EVQLVESGGGLVQPGGSLRLSCAASGFAFSSYDMSWVRQAPGKGLDWVATISGGGRYTYYPDSVKGRFTISRDNSKNNLYLQMNSLRAEDTALYYCANRYGEAWFAYWGQGTLVTVSS
VL: DIQMTQSPSSMSASVGDRVTFTCRASQDINTYLSWFQQKPGKSPKTLIYRANRLVSGVPSRFSGSGSGQDYTLTISSLQPEDMATYYCLQYDEFPLTFGAGTKLELK
B3: the Kd was found to be 34.6 nM in experiment [1]; 57.4 nM in experiment [2]; 197 nM in experiment [3]; 238 nM in experiment [6]; 3.35 nM in experiment [4]. Besides, the koff in experiment [1] was 0.0228 s⁻¹; in experiment [2] it was 0.0267 s⁻¹; in experiment [3], 0.0329 s⁻¹; in experiment [6], 0.04 s⁻¹; in experiment [4], 0.00213 s⁻¹. Besides, the kon in experiment [1] came to 660000 M⁻¹ s⁻¹; in experiment [2] it was 465000 M⁻¹ s⁻¹; in experiment [3], 167000 M⁻¹ s⁻¹; in experiment [6], 168000 M⁻¹ s⁻¹; in experiment [4] it was 636000 M⁻¹ s⁻¹.
